Residue numbers refer to the chain shown, from its start.
B1: ch36-05 chimeric monoclonal antibody (antibody, human IgG1, kappa, V domains shown)
VH: QVQLQQSGAELVKPGAPVKLSCKASGYTFTRYWMNWVKQRPGRGLEWIGRIDPSDSEIHYNQNFKDKATLTVDKSSSTAYIQLSSLTSEDSAVYYCARDYGSDYYAMDYWGQGTSVTVSS
VL: QIVLTQSPAIMSASLGEEITLTCSASSSVSYMHWYQQKSGTSPKLLIYSTSNLTSGVPSRFSGSGSGTFYSLTISSVEAEDAADYYCHQWSSYPFGGGTKLEIKR
notes: Murine VH + human IgG1 Fc; murine VL + human Kappa; also called chR036-05; chR036.05
B2: humanized antibody 36-5 Hz121 (antibody, human IgG1, V domains shown)
VH: QVQLVQSGAEVKKPGASVKVSCKASGYTFTSYWMNWVRQAPGQGLEWMGRIDPSDSEIHYNQKFKGRVTMTVDTSTSTAYMELSSLRSEDTAVYYCARDYGSDYYAMDYWGQGTLVTVSS
VL: QIVLTQSPAFQSVTPGEKVTITCSASQSVSYMHWYQQKSGTSPKLLIYSTSNLTSGVPSRFSGSGSGTDYTLTISSLEAEDAATYYCHQWSSYPFGGGTKVEIK
notes: The variable regions were cloned into vector p3U containing the human IgG1 constant region; also called H-36.5Hz30 + L-36.5Hz31
B3: humanized antibody 36-5 Hz114 (antibody, human IgG1, V domains shown)
VH: B2 VH with G66D, R67K, V68A, M70L, T74K
VL: B2 VL
notes: The variable regions were cloned into expression vector p3U containing the human IgG1 constant region; also called H-36.5Hz27 + L-36.5Hz31
B4: humanized antibody 36-5 Hz128 (antibody, human IgG1, V domains shown)
VH: B2 VH with M48I
VL: B2 VL
notes: The variable regions were cloned into vector p3U containing the human IgG1 constant region; also called H-36.5Hz31 + L-36.5Hz31

Assays:
[1] = biological target: T1, CD117 (c-Kit, stem cell factor receptor) on HEL or TF1 human erythroleukemia cells (human, UniProt P10721 26-976); experiment: flow cytometry on HEL cells; 1 µl/2.10^5 cells
T1 construct: whole, on cells
Protocol: (§1) By flow cytometry, the humanized mAb staining was analyzed on HEL CD117 positive cell line. […] No staining was observed on the cell line CEM (CD117 negative, (data not shown).

[2] = biological target: T1, CD117 (c-Kit, stem cell factor …); experiment: flow cytometry on HEL cells; 0.1 µl/2.10^5 cells
Protocol: as §1

[3] = biological target: T1, CD117 (c-Kit, stem cell factor …); experiment: flow cytometry on HEL cells; 10 µl/2.10^5 cells
Protocol: as §1

[4] = biological target: T1, CD117 (c-Kit, stem cell factor …); experiment: flow cytometry on HEL cells; 100 µl/2.10^5 cells
Protocol: as §1

T1 sequence (P10721 26-976): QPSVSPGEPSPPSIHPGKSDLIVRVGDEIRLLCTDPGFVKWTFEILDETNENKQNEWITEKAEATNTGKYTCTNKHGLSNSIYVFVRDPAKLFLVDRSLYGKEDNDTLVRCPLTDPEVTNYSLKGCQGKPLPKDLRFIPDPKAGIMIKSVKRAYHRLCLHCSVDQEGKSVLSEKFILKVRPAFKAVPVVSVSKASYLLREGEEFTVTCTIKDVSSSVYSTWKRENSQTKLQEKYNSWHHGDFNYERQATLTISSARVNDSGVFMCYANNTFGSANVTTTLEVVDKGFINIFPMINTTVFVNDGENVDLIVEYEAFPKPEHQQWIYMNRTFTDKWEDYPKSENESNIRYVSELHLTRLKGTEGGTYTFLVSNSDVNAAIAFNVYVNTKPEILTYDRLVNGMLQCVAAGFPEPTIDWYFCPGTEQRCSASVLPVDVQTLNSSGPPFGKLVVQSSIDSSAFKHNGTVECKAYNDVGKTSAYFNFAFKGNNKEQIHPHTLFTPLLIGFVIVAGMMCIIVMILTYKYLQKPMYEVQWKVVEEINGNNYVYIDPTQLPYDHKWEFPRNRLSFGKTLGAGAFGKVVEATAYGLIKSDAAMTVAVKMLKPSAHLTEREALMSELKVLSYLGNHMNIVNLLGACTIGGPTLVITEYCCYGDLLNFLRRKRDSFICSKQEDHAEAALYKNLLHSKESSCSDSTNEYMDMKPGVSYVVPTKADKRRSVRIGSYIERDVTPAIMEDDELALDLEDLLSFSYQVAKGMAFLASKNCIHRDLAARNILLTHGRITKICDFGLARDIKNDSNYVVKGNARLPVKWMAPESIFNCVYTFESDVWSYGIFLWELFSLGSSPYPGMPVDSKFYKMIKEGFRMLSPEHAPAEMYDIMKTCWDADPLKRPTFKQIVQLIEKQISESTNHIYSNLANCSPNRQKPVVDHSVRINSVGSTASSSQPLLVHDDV

% labelled HEL cells [1] [%]	MFI [1]	% labelled HEL cells [2] [%]	MFI [2]	% labelled HEL cells [3] [%]	MFI [3]	% labelled HEL cells [4] [%]	MFI [4]	Binder
80	259	43	259	81	262	80	251	B1
67	228	59	210	70	236	73	241	B2
66	228	64	225	70	136	74	242	B3
72	240	61	214	77	250	94	291	B4
